Experimental data taken from patent US20060115475A1 (published 2006).

How the values were obtained:
[1] = biological target: T1, soluble human TLR3 extracellular domain (human, UniProt O15455 24-703); experiment: ELISA, coated soluble hTLR3 extracellular domain, HRP-labeled anti-human IgG
T1 construct: also called hTLR3 extracellular domain; extracellular domain of human TLR3

[2] = biological target: T1, soluble human TLR3 extracellular domain; experiment: ELISA, TLR3 binding assay as in Example 20
[3] = biological target: T2, Human hexa-histidine-TLR3 (human, UniProt O15455 24-703, limits assumed); experiment: Biacore 3000, hexa-histidine-TLR3 captured on anti-His antibody, mAb in solution, 25 C, 1:1 model
T2 construct: Captured by anti-His antibody on a CM5 chip; also called TLR3 (captured on the chip surface); not shown: hexa-histidine tag

[4] = biological target: T1, soluble human TLR3 extracellular domain; experiment: Biacore 2000, mAb captured on protein A, TLR3 in solution, 25 C, 1:1 model
Description: Measurement of binding affinity by Biacore was performed by mAb capture and TLR3 capture techniques. MAb capture analysis was performed at 25° C. using a Biacore 2000 biosensor equipped with a CM5 chip with surfaces modified with protein A (6,000 RU) at 25° C. by standard amine coupling. Antibody was diluted to 30 nM and captured for one minute on different protein A surfaces. TLR3 was injected at 0, 0.1, 0.3, 1.0, 3.0, and 9.0 nM and associations and dissociations were monitored for 5 minutes. The protein A modified surfaces were regenerated using two 6-second pulses 100 mM phosphoric acid. Available binding data sets were fit to a 1:1 interaction model (CLAMP™). The rate constants and their ratio (KD=kd/kₐ) and the error of fit carried over the estimate of the apparent equilibrium constants were calculated.

B1: human-adapted anti-TLR3 mAb HV7/LV7 (antibody, human IgG4, V domains shown)
VH: QVQLVQSGAEVKKPGSSVKVSCKASGGTFSTYWIHWVRQAPGQGLEWMGEINPNNGRINYNEKFKTRVTITADESTSTAYMELSSLRSEDTAVYYCARVGVMITTFPYWGRGTLVTVSS
VL: DIQMTQSPSSLSASVGDRVTITCRASGNIHNYLAWFQQKPGKAPKSLIYNAKTLADGVPSRFSGSGSGTDFTLTISSLQPEDFATYYCQHFWSTPFTFGQGTKLEIK
notes: Human IgG4 (S228P, F234A, L235A), kappa; not shown: human kappa light chain constant region
[1]
  EC50: 4.26 µg/mL

B2: human-adapted C1068 variant mAb HBV1 (Vh CDR1 I34M in the HV1/LV1 background) (antibody, V domains shown)
VH: QVQLVQSGAEVKKPGASVKVSCKASGYTFTTYWMHWVRQAPGQRLEWMGEINPNNGRINYNEKFKTRVTITRDTSASTAYMELSSLRSEDTAVYYCARVGVMITTFPYWGQGTLVTVSS
VL: DIQMTQSPSSLSASVGDRVTITCRASGNIHNYLAWYQQKPGKAPKLLIYNAKTLADGVPSRFSGSGSGTDFTLTISSLQPEDFATYYCQHFWSTPFTFGQGTKLEIK
notes: Made in the HV1/LV1 background and generated 'as described above'; not shown: human kappa light chain constant region
[2]
  EC50: 0.017 µg/mL

B3: human-adapted anti-TLR3 mAb HV4/LV7 (antibody, human IgG4, V domains shown)
VH: QVQLVQSGAEVKKPGASVKVSCKASGYTFTTYWIHWVRQAPGQGLEWMGEINPNNGRINYNEKFKTRVTMTRDTSISTAYMELSRLRSDDTAVYYCARVGVMITTFPYWGQGTLVTVSS
VL: DIQMTQSPSSLSASVGDRVTITCRASGNIHNYLAWFQQKPGKAPKSLIYNAKTLADGVPSRFSGSGSGTDFTLTISSLQPEDFATYYCQHFWSTPFTFGQGTKLEIK
notes: as for B1
[1]
  EC50: 0.183 µg/mL

B4: human-adapted C1068 variant mAb HBV4 (Vh CDR2 F64G in the HV1/LV1 background) (antibody, V domains shown)
VH: QVQLVQSGAEVKKPGASVKVSCKASGYTFTTYWIHWVRQAPGQRLEWMGEINPNNGRINYNEKGKTRVTITRDTSASTAYMELSSLRSEDTAVYYCARVGVMITTFPYWGQGTLVTVSS
VL: DIQMTQSPSSLSASVGDRVTITCRASGNIHNYLAWYQQKPGKAPKLLIYNAKTLADGVPSRFSGSGSGTDFTLTISSLQPEDFATYYCQHFWSTPFTFGQGTKLEIK
notes: Made in the HV1/LV1 background; not shown: human kappa light chain constant region
[2]
  EC50: 0.0409 µg/mL

B5: human-adapted anti-TLR3 mAb HV1/LV7 (antibody, human IgG4, V domains shown)
VH: QVQLVQSGAEVKKPGASVKVSCKASGYTFTTYWIHWVRQAPGQRLEWMGEINPNNGRINYNEKFKTRVTITRDTSASTAYMELSSLRSEDTAVYYCARVGVMITTFPYWGQGTLVTVSS
VL: DIQMTQSPSSLSASVGDRVTITCRASGNIHNYLAWFQQKPGKAPKSLIYNAKTLADGVPSRFSGSGSGTDFTLTISSLQPEDFATYYCQHFWSTPFTFGQGTKLEIK
notes: as for B1
[1]
  EC50: 0.289 µg/mL
[3]
  Kd: 90 nM
[4]
  Kd: 7.2 nM

B6: human-adapted anti-TLR3 mAb HV5/LV3 (antibody, human IgG4, V domains shown)
VH: QVQLVQSGAEVKKPGASVKVSCKASGYTFTTYWIHWVRQATGQGLEWMGEINPNNGRINYNEKFKTRVTMTRNTSISTAYMELSSLRSEDTAVYYCARVGVMITTFPYWGQGTLVTVSS
VL: DIQMTQSPSSLSASVGDRVTITCRASGNIHNYLAWYQQKPGKAPKRLIYNAKTLADGVPSRFSGSGSGTEFTLTISSLQPEDFATYYCQHFWSTPFTFGQGTKLEIK
notes: as for B1
[1]
  EC50: 0.0289 µg/mL

B7: human-adapted anti-TLR3 mAb HV5/LV7 (antibody, human IgG4, V domains shown)
VH: QVQLVQSGAEVKKPGASVKVSCKASGYTFTTYWIHWVRQATGQGLEWMGEINPNNGRINYNEKFKTRVTMTRNTSISTAYMELSSLRSEDTAVYYCARVGVMITTFPYWGQGTLVTVSS
VL: DIQMTQSPSSLSASVGDRVTITCRASGNIHNYLAWFQQKPGKAPKSLIYNAKTLADGVPSRFSGSGSGTDFTLTISSLQPEDFATYYCQHFWSTPFTFGQGTKLEIK
notes: as for B1
[1]
  EC50: 0.0786 µg/mL

B8: human-adapted anti-TLR3 mAb HV1/LV5 (antibody, human IgG4, V domains shown)
VH: QVQLVQSGAEVKKPGASVKVSCKASGYTFTTYWIHWVRQAPGQRLEWMGEINPNNGRINYNEKFKTRVTITRDTSASTAYMELSSLRSEDTAVYYCARVGVMITTFPYWGQGTLVTVSS
VL: DIQMTQSPSSLSASVGDRVTITCRASGNIHNYLAWYQQKPGKVPKLLIYNAKTLADGVPSRFSGSGSGTDFTLTISSLQPEDVATYYCQHFWSTPFTFGGGTKVEIK
notes: as for B1
[1]
  EC50: 0.0277 µg/mL

B9: human-adapted C1068 variant mAb HBV2 (Vh CDR2 Y60G in the HV1/LV1 background) (antibody, V domains shown)
VH: QVQLVQSGAEVKKPGASVKVSCKASGYTFTTYWIHWVRQAPGQRLEWMGEINPNNGRINGNEKFKTRVTITRDTSASTAYMELSSLRSEDTAVYYCARVGVMITTFPYWGQGTLVTVSS
VL: DIQMTQSPSSLSASVGDRVTITCRASGNIHNYLAWYQQKPGKAPKLLIYNAKTLADGVPSRFSGSGSGTDFTLTISSLQPEDFATYYCQHFWSTPFTFGQGTKLEIK
notes: as for B4
[2]
  EC50: 0.0146 µg/mL

B10: human-adapted anti-TLR3 mAb HV4/LV1 (antibody, human IgG4, V domains shown)
VH: QVQLVQSGAEVKKPGASVKVSCKASGYTFTTYWIHWVRQAPGQGLEWMGEINPNNGRINYNEKFKTRVTMTRDTSISTAYMELSRLRSDDTAVYYCARVGVMITTFPYWGQGTLVTVSS
VL: DIQMTQSPSSLSASVGDRVTITCRASGNIHNYLAWYQQKPGKAPKLLIYNAKTLADGVPSRFSGSGSGTDFTLTISSLQPEDFATYYCQHFWSTPFTFGQGTKLEIK
notes: as for B1
[1]
  EC50: 0.0291 µg/mL
